This is an account of results in patent publication US20260250404A1 (Genmab, published 2026).

The target in experiment [1] is T1, IgG1-CD27-A-P329R-E345R-LHalo (HaloTag NanoBret 618 ligand bound to the HaloTag).
T1 construct: Light chain fused to HaloTag; heavy chain as for m63
The experiment in a line: NanoBRET proximity assay between NanoLuc- and HaloTag-tagged antibodies (5 µg/mL each) bound on cells, corrected BRET (mBU).

Experiment [2] addresses T2, recombinant His-tagged human FcγRIIa, 167-His [H] / H131 variant (human, UniProt P12318 34-218, limits assumed).
T2 construct: catalogue numbers differ; also called FcγRIIa-H; FcγRIIa-H131
T2 sequence (looked up): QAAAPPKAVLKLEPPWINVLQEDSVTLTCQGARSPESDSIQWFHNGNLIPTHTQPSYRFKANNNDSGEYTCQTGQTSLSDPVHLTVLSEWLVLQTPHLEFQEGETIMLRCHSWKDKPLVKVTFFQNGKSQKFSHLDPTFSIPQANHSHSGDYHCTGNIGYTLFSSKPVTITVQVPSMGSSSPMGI
In words: SPR (Biacore), His-tagged FcγR captured on anti-His chip, antibody injected.

Experiment [3] deals with T3, recombinant His-tagged human FcγRIIa, 167-Arg [R] / R131 variant (human, UniProt P12318 34-218, limits assumed).
T3 construct: catalogue numbers differ; also called FcγRIIa-R; FcγRIIa-R131
T3 sequence (looked up): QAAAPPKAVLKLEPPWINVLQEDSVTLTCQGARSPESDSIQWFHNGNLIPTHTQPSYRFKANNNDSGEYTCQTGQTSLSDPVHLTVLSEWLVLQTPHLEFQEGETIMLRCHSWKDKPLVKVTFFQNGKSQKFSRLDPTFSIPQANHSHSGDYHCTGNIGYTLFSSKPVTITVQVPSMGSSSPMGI
The description is as above.

The target in experiment [4] is T4, recombinant His-tagged human FcγRIIb (human, UniProt P31994 43-217, limits assumed).
T4 sequence (looked up): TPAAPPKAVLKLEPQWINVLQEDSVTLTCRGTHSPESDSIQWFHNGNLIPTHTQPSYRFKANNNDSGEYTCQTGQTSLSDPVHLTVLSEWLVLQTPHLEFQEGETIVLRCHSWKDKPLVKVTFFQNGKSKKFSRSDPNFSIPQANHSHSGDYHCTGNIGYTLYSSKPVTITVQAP
The description is as above.

Experiment [5] deals with T5, recombinant His-tagged human FcγRIIIa, 176-Phe [F] / F158 variant (human, UniProt P08637 17-208).
T5 construct: also called FcγRIIIa-F; FcγRIIIa-F158
T5 sequence (P08637 17-208 limits assumed, change not shown): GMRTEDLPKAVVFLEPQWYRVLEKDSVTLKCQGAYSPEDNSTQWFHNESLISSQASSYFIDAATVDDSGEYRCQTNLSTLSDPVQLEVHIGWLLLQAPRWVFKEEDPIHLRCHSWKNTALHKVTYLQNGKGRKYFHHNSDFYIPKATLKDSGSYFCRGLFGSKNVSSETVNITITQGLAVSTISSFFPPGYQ
Described as above.

The target in experiment [6] is T6, recombinant His-tagged human FcγRIIIa, 176-Val [V] / V158 variant (human, UniProt P08637 17-208).
T6 construct: also called FcγRIIIa-V; FcγRIIIa-V158
T6 sequence (P08637 other isoform, or with tags, fused parts or gaps mutant limits assumed): as the sequence (P08637 17-208 limits assumed, change not shown) above, with F160V counted along it
Described as above.

The target in experiment [7] is T7, human complement protein C1q (from normal human serum) (human, UniProt P02745 23-245; P02746 28-253; P02747 29-245).
T7 construct: Native C1q supplied as 20% normal human serum
T7 sequence (P02745 23-245, chain 1 of 3): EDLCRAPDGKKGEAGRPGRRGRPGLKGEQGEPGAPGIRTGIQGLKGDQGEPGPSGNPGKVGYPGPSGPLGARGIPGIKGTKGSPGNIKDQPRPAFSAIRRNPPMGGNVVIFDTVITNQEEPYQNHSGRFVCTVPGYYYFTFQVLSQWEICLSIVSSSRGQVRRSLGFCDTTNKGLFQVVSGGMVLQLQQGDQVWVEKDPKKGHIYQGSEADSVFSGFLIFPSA
T7 sequence (P02746 28-253, chain 2 of 3): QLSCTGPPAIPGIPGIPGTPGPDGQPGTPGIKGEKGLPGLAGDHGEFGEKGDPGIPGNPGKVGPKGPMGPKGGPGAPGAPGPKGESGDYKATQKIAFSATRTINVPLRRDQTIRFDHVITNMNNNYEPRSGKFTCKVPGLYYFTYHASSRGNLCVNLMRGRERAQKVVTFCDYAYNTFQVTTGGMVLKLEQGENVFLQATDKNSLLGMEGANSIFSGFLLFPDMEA
T7 sequence (P02747 29-245, chain 3 of 3): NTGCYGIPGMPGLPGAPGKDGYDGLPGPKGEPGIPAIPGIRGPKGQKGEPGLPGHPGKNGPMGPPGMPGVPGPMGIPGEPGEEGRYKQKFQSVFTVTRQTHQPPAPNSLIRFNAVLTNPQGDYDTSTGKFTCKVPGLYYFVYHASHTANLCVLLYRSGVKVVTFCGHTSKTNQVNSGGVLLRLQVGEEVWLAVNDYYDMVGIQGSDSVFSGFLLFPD
In words: flow cytometry, C1q (20% normal human serum) binding to antibody bound on human T cells, FITC anti-C1q.

Experiment [8] addresses T8, human CD27 on the cell surface (T cells, transfected HEK293F cells, Daudi cells, NFκB-luc2/CD27 Jurkat cells) (human, UniProt P26842 20-240).
T8 construct: Full length human CD27, endogenous or transfected; also called TNFRSF7
In words: flow cytometry on CD4+ T cells in human healthy donor PBMC, FITC goat anti-human IgG F(ab')2, median FITC. (A flow cytometer gives signals particle by particle.)

The target of experiment [9] is T8, human CD27 on the cell surface (T …). The experiment in a line: flow cytometry on CD8+ T cells in human healthy donor PBMC, FITC goat anti-human IgG F(ab')2, median FITC.
Experiment [10] deals with recombinant His-tagged human FcγRIa (Sino Biological 10256-H08S-B) (human, UniProt P12314 16-288). In words: SPR (Biacore), His-tagged FcγR captured on anti-His chip, antibody injected, resonance units after background subtraction. For orientation: Surface plasmon resonance follows binding to a sensor surface in real time, without labels.
Chain of recombinant His-tagged human FcγRIa (Sino Biological 10256-H08S-B) (P12314 16-288 limits assumed, stated change not applied): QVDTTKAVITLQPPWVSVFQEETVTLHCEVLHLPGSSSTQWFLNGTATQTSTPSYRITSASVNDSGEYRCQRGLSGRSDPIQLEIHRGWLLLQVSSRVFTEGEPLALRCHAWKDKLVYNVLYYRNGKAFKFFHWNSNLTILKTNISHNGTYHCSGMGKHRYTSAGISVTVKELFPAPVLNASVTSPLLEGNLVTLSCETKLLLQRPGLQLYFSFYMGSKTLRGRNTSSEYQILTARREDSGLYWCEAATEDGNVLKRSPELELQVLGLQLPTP
Experiment [11] addresses T9, human FcγRIa on the cell surface (transfected CHO-S cells, M0/M1 macrophages, hMDM, FcγRI effector reporter … (human, UniProt P12314 16-374)).
T9 construct: whole, on cells; also called CD64
The experiment in a line: flow cytometry on CHO-S cells transiently expressing human FcγRIa, % PE+ cells.

For experiment [12], the target named is T10, rat PD-1 on transfected CHO-S cells (rat, UniProt D3ZIN8 25-287).
T10 sequence: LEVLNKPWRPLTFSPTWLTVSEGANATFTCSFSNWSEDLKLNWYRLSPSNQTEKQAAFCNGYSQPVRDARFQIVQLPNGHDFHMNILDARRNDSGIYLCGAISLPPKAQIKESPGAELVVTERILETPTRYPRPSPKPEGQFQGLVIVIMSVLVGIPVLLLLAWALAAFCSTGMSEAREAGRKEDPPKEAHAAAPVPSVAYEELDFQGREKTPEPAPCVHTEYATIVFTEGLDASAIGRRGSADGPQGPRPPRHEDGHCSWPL
In words: flow cytometry on CHO-S cells transiently transfected with rat PD-1, gMFI (PE).

Experiment [13] has as its target T11, human PD-1 on the cell surface (transfected CHO-S cells; PD-1 effector reporter Jurkat T cells) (human, UniProt Q15116 25-288).
T11 construct: also called CD279
The experiment in a line: flow cytometry on CHO-S cells transiently transfected with human PD-1, gMFI (PE).

Experiment [14] has as its target T12, mouse PD-1 on transfected CHO-S cells (mouse, UniProt Q02242 25-288).
T12 construct: whole, on cells
T12 sequence (looked up): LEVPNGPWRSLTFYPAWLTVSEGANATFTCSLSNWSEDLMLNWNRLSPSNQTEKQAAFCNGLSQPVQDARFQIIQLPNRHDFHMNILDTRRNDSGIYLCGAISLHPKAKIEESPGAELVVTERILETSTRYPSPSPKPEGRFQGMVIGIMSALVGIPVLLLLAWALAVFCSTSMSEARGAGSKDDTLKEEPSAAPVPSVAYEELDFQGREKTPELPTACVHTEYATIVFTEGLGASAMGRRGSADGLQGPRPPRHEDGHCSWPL
The experiment in a line: flow cytometry on CHO-S cells transiently transfected with mouse PD-1, gMFI (PE).

The target of experiment [15] is cynomolgus monkey PD-1 on transfected CHO-S cells (cynomolgus monkey, UniProt B0LAJ3 25-288). The experiment in a line: flow cytometry on CHO-S cells transiently transfected with cynomolgus monkey PD-1, gMFI (PE).
Chain of cynomolgus monkey PD-1 on transfected CHO-S cells (B0LAJ3 entry or part of it limits assumed): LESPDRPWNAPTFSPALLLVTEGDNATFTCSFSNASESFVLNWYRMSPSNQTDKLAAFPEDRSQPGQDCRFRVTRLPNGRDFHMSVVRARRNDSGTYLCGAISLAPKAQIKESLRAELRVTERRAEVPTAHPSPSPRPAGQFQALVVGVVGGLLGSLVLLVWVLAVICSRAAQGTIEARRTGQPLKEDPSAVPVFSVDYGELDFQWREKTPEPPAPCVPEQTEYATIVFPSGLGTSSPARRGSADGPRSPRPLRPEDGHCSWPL
Experiment [16] has as its target T9, human FcγRIa on the cell surface …. In words: flow cytometry on human monocyte-derived M0 macrophages, PE-labeled goat anti-human IgG, GeoMean-PE.

T8 sequence (P26842 20-240): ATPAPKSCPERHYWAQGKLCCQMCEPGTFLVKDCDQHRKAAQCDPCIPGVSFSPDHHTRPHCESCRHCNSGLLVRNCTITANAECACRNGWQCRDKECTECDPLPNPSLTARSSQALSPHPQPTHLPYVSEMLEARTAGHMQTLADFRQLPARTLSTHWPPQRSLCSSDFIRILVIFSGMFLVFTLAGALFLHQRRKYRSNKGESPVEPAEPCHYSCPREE
T9 sequence (P12314 16-374): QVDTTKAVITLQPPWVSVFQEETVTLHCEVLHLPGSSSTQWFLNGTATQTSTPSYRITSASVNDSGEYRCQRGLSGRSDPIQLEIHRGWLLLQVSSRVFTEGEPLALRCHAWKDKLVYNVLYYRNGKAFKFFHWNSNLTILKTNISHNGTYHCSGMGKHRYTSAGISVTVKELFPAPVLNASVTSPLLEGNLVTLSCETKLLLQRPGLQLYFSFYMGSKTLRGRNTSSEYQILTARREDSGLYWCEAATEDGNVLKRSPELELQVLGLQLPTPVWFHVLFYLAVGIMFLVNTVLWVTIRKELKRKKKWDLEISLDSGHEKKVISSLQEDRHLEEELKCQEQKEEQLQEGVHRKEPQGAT
T1 sequence (heavy, as listed by the source): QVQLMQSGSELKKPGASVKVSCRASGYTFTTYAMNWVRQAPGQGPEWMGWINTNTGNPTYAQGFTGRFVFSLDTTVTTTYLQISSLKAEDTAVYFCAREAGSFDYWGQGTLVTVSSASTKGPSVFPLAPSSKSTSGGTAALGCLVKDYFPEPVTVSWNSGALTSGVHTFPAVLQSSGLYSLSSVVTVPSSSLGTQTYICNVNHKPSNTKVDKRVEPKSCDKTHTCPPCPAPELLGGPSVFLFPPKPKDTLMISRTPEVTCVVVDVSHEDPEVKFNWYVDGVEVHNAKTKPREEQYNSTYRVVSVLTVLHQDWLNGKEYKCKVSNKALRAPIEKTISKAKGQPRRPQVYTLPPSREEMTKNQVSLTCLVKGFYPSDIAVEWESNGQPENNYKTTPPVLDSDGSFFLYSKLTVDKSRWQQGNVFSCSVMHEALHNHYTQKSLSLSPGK
T11 sequence (Q15116 25-288 limits assumed): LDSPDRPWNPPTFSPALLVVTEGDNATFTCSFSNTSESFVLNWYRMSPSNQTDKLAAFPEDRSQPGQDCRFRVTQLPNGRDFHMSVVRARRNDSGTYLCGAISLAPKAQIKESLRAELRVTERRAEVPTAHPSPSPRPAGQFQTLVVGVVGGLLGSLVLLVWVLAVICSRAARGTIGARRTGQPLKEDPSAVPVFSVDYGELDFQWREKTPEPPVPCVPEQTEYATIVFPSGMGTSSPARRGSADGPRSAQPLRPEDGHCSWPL

B1: IgG1-CD27-A-P329R-E345R-LNLuc (antibody)
heavy: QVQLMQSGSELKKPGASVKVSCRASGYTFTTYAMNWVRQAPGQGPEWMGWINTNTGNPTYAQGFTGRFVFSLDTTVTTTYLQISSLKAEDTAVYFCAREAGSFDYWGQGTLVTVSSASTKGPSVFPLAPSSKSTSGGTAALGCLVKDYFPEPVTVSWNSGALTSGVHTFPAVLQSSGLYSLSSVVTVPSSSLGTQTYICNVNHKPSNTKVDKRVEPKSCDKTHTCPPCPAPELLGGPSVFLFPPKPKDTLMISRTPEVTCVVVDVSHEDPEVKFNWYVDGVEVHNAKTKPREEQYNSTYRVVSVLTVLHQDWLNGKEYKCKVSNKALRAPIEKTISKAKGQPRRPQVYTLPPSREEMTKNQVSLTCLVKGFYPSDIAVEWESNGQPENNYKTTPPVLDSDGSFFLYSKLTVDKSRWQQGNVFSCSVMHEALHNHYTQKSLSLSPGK
light: QSALTQPASVSGSPGQSITISCTGTSSDVYYYNYVSWYQQHPGRAPKLVIYDVSNRPSGVSNRFSGSKSGNTASLTISGLRAEDEADYYCSSYTVNRVWVFGGGTKLTVLGQPKAAPSVTLFPPSSEELQANKATLVCLISDFYPGAVTVAWKADSSPVKAGVETTTPSKQSNNKYAASSYLSLTPEQWKSHRSYSCQVTHEGSTVEKTVAPTECSSLGSSGVFTLEDFVGDWRQTAGYNLDQVLEQGGVSSLFQNLGVSVTPIQRIVLSGENGLKIDIHVIIPYEGLSGDQMGQIEKIFKVVYPVDDHHFKVILHYGTLVIDGVTPNMIDYFGRPYEGIAVFDGKKITVTGTLWNGNKIIDERLINPDGSLLFRVTINGVTGWRLCERILA
Regarding B1, the binding result in [1] is on record as “binds”.

B2: IgG1-CD27-A-P329R-E345R (antibody)
heavy: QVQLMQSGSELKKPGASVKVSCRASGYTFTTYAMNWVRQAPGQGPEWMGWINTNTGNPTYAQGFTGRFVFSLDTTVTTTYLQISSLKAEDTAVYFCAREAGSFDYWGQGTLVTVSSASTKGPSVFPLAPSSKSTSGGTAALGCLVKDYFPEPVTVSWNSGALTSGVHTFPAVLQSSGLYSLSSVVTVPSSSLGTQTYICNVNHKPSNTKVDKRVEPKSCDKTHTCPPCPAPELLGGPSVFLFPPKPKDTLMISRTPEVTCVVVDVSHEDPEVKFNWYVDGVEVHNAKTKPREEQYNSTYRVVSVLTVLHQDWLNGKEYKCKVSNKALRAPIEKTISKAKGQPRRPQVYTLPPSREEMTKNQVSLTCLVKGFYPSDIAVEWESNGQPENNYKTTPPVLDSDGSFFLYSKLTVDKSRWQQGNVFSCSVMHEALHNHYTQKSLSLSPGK
light: QSALTQPASVSGSPGQSITISCTGTSSDVYYYNYVSWYQQHPGRAPKLVIYDVSNRPSGVSNRFSGSKSGNTASLTISGLRAEDEADYYCSSYTVNRVWVFGGGTKLTVLGQPKAAPSVTLFPPSSEELQANKATLVCLISDFYPGAVTVAWKADSSPVKAGVETTTPSKQSNNKYAASSYLSLTPEQWKSHRSYSCQVTHEGSTVEKTVAPTECS
notes: also called IgG1-CD27-A-E345R-P329R; IgG-CD27-A-P329R-E345R
The EC50 (read off the curve) is the concentration at which the effect is half-maximal. As to B2, the binding result is “no binding (tested: 10,000 nM)” in experiment [2]; “no binding (tested: 10,000 nM)” in experiment [3]; “no binding (tested: 10,000 nM)” in experiment [4]; “no binding (tested: 10,000 nM)” in experiment [5]; “no binding (tested: 10,000 nM)” in experiment [6]; “no binding (tested: 15 µg/mL)” in experiment [7]. In [10], the binding result is on record as “binds”. Further, the “EC50 (read off the curve)” value in experiment [8] and in experiment [9] was roughly 0.03 µg/mL throughout.

B3: IgG1-ctrl-FERR (b12 antigen-binding domains, IgG1m(f)-L234F-L235E-G236R-K409R) (antibody)
heavy: QVQLVQSGAEVKKPGASVKVSCQASGYRFSNFVIHWVRQAPGQRFEWMGWINPYNGNKEFSAKFQDRVTFTADTSANTAYMELRSLRSADTAVYYCARVGPYSWDDSPQDNYYMDVWGKGTTVIVSSASTKGPSVFPLAPSSKSTSGGTAALGCLVKDYFPEPVTVSWNSGALTSGVHTFPAVLQSSGLYSLSSVVTVPSSSLGTQTYICNVNHKPSNTKVDKRVEPKSCDKTHTCPPCPAPEFERGPSVFLFPPKPKDTLMISRTPEVTCVVVDVSHEDPEVKFNWYVDGVEVHNAKTKPREEQYNSTYRVVSVLTVLHQDWLNGKEYKCKVSNKALPAPIEKTISKAKGQPREPQVYTLPPSREEMTKNQVSLTCLVKGFYPSDIAVEWESNGQPENNYKTTPPVLDSDGSFFLYSRLTVDKSRWQQGNVFSCSVMHEALHNHYTQKSLSLSPG
light: EIVLTQSPGTLSLSPGERATFSCRSSHSIRSRRVAWYQHKPGQAPRLVIHGVSNRASGISDRFSGSGSGTDFTLTITRVEPEDFALYYCQVYGASSYTFGQGTKLERKRTVAAPSVFIFPPSDEQLKSGTASVVCLLNNFYPREAKVQWKVDNALQSGNSQESVTEQDSKDSTYSLSSTLTLSKADYEKHKVYACEVTHQGLSSPVTKSFNRGEC
On to B3, for which the binding result in experiment [11], in [12], in experiment [13], in experiment [14] and in experiment [15] was “no binding (tested: 10 µg/mL)” each time.

B4: IgG1-b12-P329R-E345R (antibody)
VH: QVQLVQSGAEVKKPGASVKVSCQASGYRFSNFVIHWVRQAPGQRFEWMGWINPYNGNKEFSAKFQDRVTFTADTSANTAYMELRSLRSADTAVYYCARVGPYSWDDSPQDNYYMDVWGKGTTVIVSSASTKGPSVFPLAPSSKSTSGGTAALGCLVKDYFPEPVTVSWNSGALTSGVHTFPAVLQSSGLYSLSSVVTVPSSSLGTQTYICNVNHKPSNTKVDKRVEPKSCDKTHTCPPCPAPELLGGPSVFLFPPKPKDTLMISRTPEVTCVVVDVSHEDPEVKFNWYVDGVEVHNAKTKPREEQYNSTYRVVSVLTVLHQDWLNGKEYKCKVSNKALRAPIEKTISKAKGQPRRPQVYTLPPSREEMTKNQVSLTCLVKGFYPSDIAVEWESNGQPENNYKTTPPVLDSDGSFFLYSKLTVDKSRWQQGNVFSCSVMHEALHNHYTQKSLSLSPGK
VL: EIVLTQSPGTLSLSPGERATFSCRSSHSIRSRRVAWYQHKPGQAPRLVIHGVSNRASGISDRFSGSGSGTDFTLTITRVEPEDFALYYCQVYGASSYTFGQGTKLERKRTVAAPSVFIFPPSDEQLKSGTASVVCLLNNFYPREAKVQWKVDNALQSGNSQESVTEQDSKDSTYSLSSTLTLSKADYEKHKVYACEVTHQGLSSPVTKSFNRGEC
notes: also called ctrl; IgG1-b12-E345R-P329R
Take B4: the values for the binding result in [8] and in experiment [16] were “no binding (tested: 10 µg/ml)” and “no binding (tested: 30 µg/mL)”, respectively.
